Experimental data from the Human Domainome abundance scans (Beltran et al. 2025).

B1: Chromodomain-helicase-DNA-binding protein 4, residues 623 to 675; numbered along this chain, Q14839 (parent)
chain: MIHRILNHSVDKKGHVHYLIKWRDLPYDQASWESEDVEIQDYDLFKQSYWNHR
B2: LIM and senescent cell antigen-like-containing domain protein 2, residues 13 to 71; numbered along this chain, Q7Z4I7 (parent)
chain: AVCQRCQARFSPAERIVNSNGELYHEHCFVCAQCFRPFPEGLFYEFEGRKYCEHDFQML

Variants of: B1
Assay: abundance fitness (aPCA) (normalised: wild type 0, dead -1); higher = more abundant; growth selection in yeast, the domain comes from the species named
Details: Homo sapiens

Abundance fitness, by site and new letter:
H3: E 0.437, I -1.05, D 0.235, F -0.392, M -0.416, C -0.094, R -0.376, Q 0.045, N -0.266, K -0.56, T -0.282, A -0.086, S -0.047, P -0.741
I2: M -0.761, E -0.54, Y -0.882, V -0.589, R -0.734, Q -0.931, A -0.978, G -0.802, N -0.751, T -0.686, K -0.82, L -0.879, S -0.708, F -0.945, H -0.673, W -0.856, C -0.662
M1: K 0.112, Q -0.689, C -0.25, L -0.324, T -0.117, G -0.046, H -0.462, R -0.265, S -0.23, Y 0.226, D -0.452, I 0.148, N 0.277, F -0.004, V -0.015

Variants of: B2
Assay: as above
Details: Homo sapiens

Abundance fitness: each site, then its substitutions
D55: Y -0.814, F -1.14, I -0.921, N -0.606, P -0.839, T -0.651, S -0.667, K -0.918, H 0.018, L -0.933, M -1.24, Q -0.753, W -0.815, R -0.747, E -0.456, G -0.636, V -0.964
E53: V -0.39, L -0.207, R -0.027, C -0.38, D 0.169, I -0.147, N 0.01, A -0.216, W -0.186, H 0.061, G -0.25, K -0.21, F -0.064, P -0.359, T -0.235, M -0.286
Q57: T -0.121, C -0.352, W -0.28, S -0.145, L -0.331, K 0.006, H 0.056, G 0.118, R 0.107, Y -0.586, N 0.062, F -0.346, E -0.052, V -0.156, D -0.264, I -0.295, A -0.077
C52: S -0.798, V -0.93, Q -0.597, H -0.486, T -0.952, R -0.839, I -0.918, L -0.817, N -0.269, W -1.14, Y -0.49, P -0.949, G -0.731, M -0.673
L59: R -0.123, Q -0.069, I 0.099, N -0.676, W -0.348, S -0.312, C -0.033, P -0.235, F -0.616, T -0.141, G 0.183, V 0.036, Y -0.204, E -0.373, A 0.035
H54: I 0.14, A 0.064, L -0.017, R 0.108, N 0.137, S 0.094, K 0.117, F -0.01, C 0.074, P 0.034, T 0.235, Q 0.045, E 0.189, G 0.027, Y -0.061, V 0.036, W -0.157
F56: K -0.757, L -0.091, W -0.364, S -0.105, T -0.114, E -0.648, A -0.316, R -0.361
M58: Y -0.309, N 0.132, K 0.043, R 0.066, W -0.055, D -0.106, H -0.052, T 0.123, A -0.004, Q 0.013, F 0.154, G 0.223, E 0.061, C 0.043, L 0.04, P -0.06, V 0.007
